Data on 139 substances can be found in the supplement of paper PMC12042874.

± gives the uncertainty stated by the source.

The data set in a line: amyloid nucleation score (Sup35N fusion, yeast selection) (log enrichment); library NNK2; higher = more nucleation; inactive = no reads after selection. An outline of the steps: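 DiMSum was used to calculate nucleation scores as log enrichment of output over input reads, centred on the mode score of non-aggregating sequences. Sequences with fewer than 100 input reads were not scored. Input and output came from Illumina sequencing of plasmid inserts in psi-negative yeast expressing peptides of 20 random codons fused to Sup35N, induced 24 hours with 100 μM copper sulfate and then grown 7 days at 30°C on medium lacking adenine and uracil.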
Take ILSCGRYWRTDTIVVTGNST: the amyloid nucleation score came to 1.91 ± 0.35.

The substance ILSDKCLIGIGCSISSDTAG showed an amyloid nucleation score of -0.352 ± 0.38.

Substance ILSQPEEGLGGTKSSFCVVF returned an amyloid nucleation score of -0.363 ± 1.1.

As to ILSRTKVFYNSSCETDVMWL, the amyloid nucleation score worked out at 4.17 ± 0.085.

The substance ILSSFMQ came in with an amyloid nucleation score of -0.2 ± 0.41.

With ILTGR, the amyloid nucleation score is -0.16 ± 0.55.

Regarding ILVSFYRDSS, the amyloid nucleation score was 0.416 ± 0.44.

Consider ILVSMDRLCLWAGTSASGFS, for which the amyloid nucleation score came out at 0.278 ± 0.55.

ILVWLGQTEEASVDRRAQHT yielded an amyloid nucleation score of 0.43 ± 0.32.

In the case of ILWLTADFTLLISNYMCLS, the amyloid nucleation score entry is “inactive”.

ILYSDFRMYSGRFLSEMVRI returned an amyloid nucleation score of 0.247 ± 0.39.

Consider IMFICTGRSLTHTD, for which the amyloid nucleation score is -0.642 ± 1.1.

Substance IMGKLHTADYIIVLRLIDRS showed an amyloid nucleation score of -0.349 ± 0.41.

As for IMHSLLRSGN, the amyloid nucleation score result was “inactive”.

As to IMIFSLVTMLDVNGTIC, the amyloid nucleation score turned out to be 7.477 ± 0.047.

IMLKGDWC had an amyloid nucleation score of -0.189 ± 0.47.

Take IMRMNVMCGVRYPYALFALL: the amyloid nucleation score entry was “inactive”.

IMTDPRSSLSLWCLNLSVNG displayed an amyloid nucleation score of 4.88 ± 0.082.

Substance IMTMTGNVDNIAVIRRS had an amyloid nucleation score of -0.519 ± 1.

In the case of INFSTLYDLGESFFYQCPKM, the amyloid nucleation score entry was “inactive”.

Regarding INQFMRDFLDHLPCAYRVYN, the amyloid nucleation score was -0.049 ± 0.55.

With INRPYNIVGRRSSPSHIVTF, the amyloid nucleation score result is “inactive”.

INVFSYSL returned an amyloid nucleation score of 2.58 ± 0.089.

With INVPCFRLKSSVGVISLQGT, the amyloid nucleation score was 0.205 ± 0.26.

In turn, IPEVESIGMGWGWREISGEC came in with an amyloid nucleation score of 1.42 ± 0.41.

Take IPIWFERIALSDFKLVFSHN: the amyloid nucleation score entry is “inactive”.

Substance IPLQSTMRFRCPVMDLGNFI yielded an amyloid nucleation score of -0.849 ± 1.

Turning to IPRCKKW, the amyloid nucleation score turned out to be 3.22 ± 0.1.

IPSCRVFICRGNNVFRVPIT registered an amyloid nucleation score of -1.06 ± 1.1.

Take IPYEKPHRYIVNWECVAGSM: the amyloid nucleation score was 0.621 ± 0.43.

Take IPYSSPS: the amyloid nucleation score result was “inactive”.

Take IQDLRFNITVTMPLESVSFM: the amyloid nucleation score stood at 7.046 ± 0.058.

IQGPIVEFTISIRSSSRRHW displayed an amyloid nucleation score of 3.1 ± 0.083.

In turn, IQKLRVRHDMISYTSEMSVN came in with an amyloid nucleation score of -0.218 ± 0.55.

Substance IRDWHWTNVGSCNCCFFCQG returned an amyloid nucleation score of 9.244 ± 0.079.

Substance IRFGLVWRLKLGFMLGLNSA gave an amyloid nucleation score of 4.98 ± 0.095.

As for IRGCLNMFWLKKWDLPRLYF, the amyloid nucleation score is -0.327 ± 0.63.

With IRGDNWMVCTTYTNSSFLRS, the amyloid nucleation score was determined as 0.215 ± 0.57.

On to IRGGHTLSYRVEDKRPTEWG, for which the amyloid nucleation score stood at 2.04 ± 0.2.

IRKGSHGSKMIEPVAMRSAC: the amyloid nucleation score was 4.88 ± 0.083.

Consider IRLAYASRNWCSSFGCGRMI, for which the amyloid nucleation score is -0.571 ± 0.55.

Take IRLVMWCYHQNDCVVFSSLH: the amyloid nucleation score turned out to be 1.94 ± 0.13.

Substance IRLYKGVTWIFLSGSYLLRD yielded an amyloid nucleation score of -0.891 ± 1.1.

Consider IRMDGYEIRFSHSLYYLSH, for which the amyloid nucleation score came out at 2.45 ± 0.081.

As for IRQIIESWQFLYISVYAGLV, the amyloid nucleation score was 0.186 ± 0.51.

The substance IRQPSVKQPWTVAKTFH returned an amyloid nucleation score of 0.052 ± 0.5.

As to IRSGIIPVTVGPYHGALYMV, the amyloid nucleation score turned out to be 0.662 ± 0.74.

IRSLFLVDYNRMIGMPKGMY returned an amyloid nucleation score of 1.55 ± 0.2.

With IRSPDAVNSNCATPRMRVY, the amyloid nucleation score amounted to 0.499 ± 0.36.

ISACFKMGNRGYVICAMSRV gave an amyloid nucleation score of -0.306 ± 0.45.

Regarding ISFLSNR, the amyloid nucleation score was found to be 1.58 ± 0.27.

The substance ISGLETYLRSYWICIWSMWA yielded an amyloid nucleation score of 3.02 ± 0.15.

ISLAINIAPLLLCTESTEWG had an amyloid nucleation score of -0.133 ± 0.65.

Consider ISLHDRWIADPFVTACGKRY, for which the amyloid nucleation score amounted to 0.386 ± 0.19.

ISLHILCCRSMF showed an amyloid nucleation score of 8.618 ± 0.079.

On to ISLIFCNSTRIYKFLLMFSW, for which the amyloid nucleation score entry is “inactive”.

Substance ISNVNLTE had an amyloid nucleation score of -0.763 ± 0.4.

For ISPTKSNLYMADVEFREPGT, the amyloid nucleation score was -0.883 ± 0.49.

ISRRHGFIILLGNDIRRVDY had an amyloid nucleation score of 0.554 ± 0.81.

Take ISRVSGGQTLPSGLVMG: the amyloid nucleation score was -0.326 ± 0.45.

For ISSMSTLFCLFRGCVGGEYI, the amyloid nucleation score was -2.18 ± 0.64.

Substance ISVGRSYSV gave an amyloid nucleation score of 0.694 ± 0.24.

The substance ISVKFNEEACKFYDLCN registered an amyloid nucleation score of -0.294 ± 1.

ISVYLSRSIFI had an amyloid nucleation score of -0.326 ± 1.

In turn, ISYHSVWDKLFFYVVDFYTS showed an amyloid nucleation score of -0.591 ± 1.

As for ITCDRYITDVIDNEA, the amyloid nucleation score entry is “inactive”.

For ITCVVLPLSRWDVHFKCSCH, the amyloid nucleation score was 0.096 ± 0.31.

Consider ITDVFSDAACNRWQINYTQA, for which the amyloid nucleation score is -0.832 ± 0.33.

Substance ITFAYVSLTLHRINEMGYQL registered an amyloid nucleation score of 4.65 ± 0.049.

On to ITHQRSSACIVGFILRRRCN, for which the amyloid nucleation score is -0.369 ± 0.54.

Regarding ITILCLNVSMVYEVGQ, the amyloid nucleation score came to 7.778 ± 0.042.

With ITIPVNLPLHFLYSGQYHVA, the amyloid nucleation score is -0.307 ± 0.74.

Substance ITIRCGSKDSFMNIGLGKMG showed an amyloid nucleation score of 4.09 ± 0.11.

ITLRRLTVITENPLGWNHIT registered an amyloid nucleation score of 0.499 ± 0.36.

In the case of ITNAYGLIPTNFLCYAFCVI, the amyloid nucleation score was determined as 7.958 ± 0.038.

ITSSRDDVSYTVGPKDMFES came in with an amyloid nucleation score of 1.17 ± 0.37.

IVAFARVITLMRLLADGSTV: the amyloid nucleation score is 0.608 ± 0.54.

For IVAGVSSGQGIDQDSIVNKR, the amyloid nucleation score came to 0.102 ± 1.1.

IVCIWNTDVLIGKWTHLSWS displayed an amyloid nucleation score of 0.883 ± 0.27.

Take IVFYMSS: the amyloid nucleation score turned out to be 1.53 ± 0.095.

As to IVGATYHLSWLPGYTGIYRG, the amyloid nucleation score came out at 1.25 ± 0.47.

IVGDVHSLMILRVKSAFKFT registered an amyloid nucleation score of 2.81 ± 0.16.

IVGELVMTFKSVMAARTPFH registered an amyloid nucleation score of 4.19 ± 0.064.

Substance IVGNGRMCLRELSRFCFVRC showed an amyloid nucleation score of 1.04 ± 0.28.

The substance IVGVTYFCGSNRIIMMNGVL yielded an amyloid nucleation score of 5.956 ± 0.052.

IVICSVFSIMTRLFRSVNGR displayed an amyloid nucleation score of 8.429 ± 0.062.

As to IVLTLDLSRRVGMRNCVLLG, the amyloid nucleation score is -0.063 ± 0.54.

IVLYVHTTLLAGS showed an amyloid nucleation score of 4.6 ± 0.091.

Substance IVNMMIAANLACAMWSNCKQ gave an amyloid nucleation score of 9.266 ± 0.044.

For IVQKFCVASCGLEHYVF, the amyloid nucleation score is 6.07 ± 0.073.

Regarding IVRVSMGYGIIPLICSKTEG, the amyloid nucleation score was found to be 0.859 ± 0.74.

IVSAMQLEHESQCKFGMNWV showed an amyloid nucleation score of 0.082 ± 0.42.

For the substance IVSEIFSG, the amyloid nucleation score was -0.369 ± 1.1.

IVSETKITIVC showed an amyloid nucleation score of -0.275 ± 0.48.

Turning to IVWGC, the amyloid nucleation score came to 0.493 ± 0.34.

For the substance IWCSTGTFWLGGRLITLWRW, the amyloid nucleation score turned out to be 1.02 ± 0.28.

The substance IWLDSHSSAWISWTIMI returned an amyloid nucleation score of -0.585 ± 0.41.

IWSYLRSSASWPMNASNTSA: the amyloid nucleation score was 0.905 ± 0.34.

IWYCRK gave an amyloid nucleation score of -1.11 ± 0.44.

In turn, IWYLLFMVDLVKCHTMKTNR showed an amyloid nucleation score of 0.686 ± 0.12.

In the case of IYDLSCAKARLYVASHSLTL, the amyloid nucleation score amounted to 0.418 ± 0.31.

Consider IYDNMVDKFVSKGRCAVSPD, for which the amyloid nucleation score was -0.066 ± 0.55.

As for IYFPP, the amyloid nucleation score was -0.689 ± 0.4.

Regarding IYKSRRVRHVLDVVL, the amyloid nucleation score is -0.241 ± 0.56.

With IYLFFSCFFAILTNLVRPFA, the amyloid nucleation score was 3.83 ± 0.081.

For the substance IYLSLATCSGRRRSYSKPSR, the amyloid nucleation score came to 0.645 ± 0.47.

IYMDLLQNQSIR had an amyloid nucleation score of -1.27 ± 1.1.

The substance IYSFSASNW yielded an amyloid nucleation score of 0.048 ± 0.79.

In turn, IYSGETYKTWLFHGINV came in with an amyloid nucleation score of -1.4 ± 0.62.

The substance IYSHESASWWMRRARSS had an amyloid nucleation score of 1.55 ± 0.25.

Turning to IYTTYKRTFRS, the amyloid nucleation score was -0.553 ± 1.1.

In turn, IYWSLMDWLEV had an amyloid nucleation score of 1.22 ± 0.44.

KAIDLRVPSMYYRPWVV showed an amyloid nucleation score of -0.58 ± 0.76.

On to KASLGLFYTWVQLSLHISCG, for which the amyloid nucleation score is -0.488 ± 1.

For KAVSLPLVGGLC, the amyloid nucleation score was -0.684 ± 0.34.

KCIYDFHHRKSSVRDSLSFH: the amyloid nucleation score is -1.6 ± 0.75.

In turn, KDAPEECNYVQFKA showed an amyloid nucleation score of 0.273 ± 0.61.

Turning to KDHSMSELYGGICVRCYKLI, the amyloid nucleation score is -0.378 ± 1.

KDLRWVLRWC: the amyloid nucleation score came to 0.912 ± 0.26.

KDNLDQYFTERRGWWLCEVV had an amyloid nucleation score of -0.043 ± 0.5.

KDVCY came in with an amyloid nucleation score of 1.31 ± 0.23.

KEMARTSSSRCDITLQWPAS gave an amyloid nucleation score of 0.562 ± 0.44.

For KENDVNLD, the amyloid nucleation score was determined as 1.5 ± 0.44.

Consider KESKLYLFLCFL, for which the amyloid nucleation score turned out to be 7.832 ± 0.048.

On to KESLAFTSVGVPYVWGLYGE, for which the amyloid nucleation score is 0.035 ± 0.32.

With KFIEHWYVFGYIFLRFYKFQ, the amyloid nucleation score is -0.623 ± 1.

In the case of KFLIWRNFLYSVIMAVAW, the amyloid nucleation score entry is “inactive”.

In the case of KFLKARFGYQST, the amyloid nucleation score was 1.3 ± 0.13.

In turn, KFNFS yielded an amyloid nucleation score of -0.908 ± 0.44.

In the case of KFSASKSDISLSSYVVIMFM, the amyloid nucleation score was 6.186 ± 0.036.

The substance KFSVSLICYVTASRYSNYRE had an amyloid nucleation score of 0.362 ± 0.31.

In turn, KFVYSGGLFTMLRSC registered an amyloid nucleation score of -0.414 ± 0.61.

On to KGALCLSV, for which the amyloid nucleation score was -0.148 ± 0.39.

For the substance KGCVVFFRFSCNCSMICAWV, the amyloid nucleation score was -0.668 ± 0.48.

Regarding KGFAKILLGTSCLMSV, the amyloid nucleation score was -0.848 ± 0.62.

Turning to KGGQK, the amyloid nucleation score is -0.493 ± 0.34.

For the substance KGLAREVRCSQYTTVIFVDR, the amyloid nucleation score was found to be 5.273 ± 0.043.

Substance KGMLGAASHSQIKFVCVFSW gave an amyloid nucleation score of -0.493 ± 0.32.

KGNEY had an amyloid nucleation score of -0.757 ± 0.64.
